The test system of data set [1] is phospho-Ser^8-glucagon.
Data set [2] concerns phospho-Thr^5-glucagon.
phospho-Thr^5-glucagon, sequence (chain, as listed by the source): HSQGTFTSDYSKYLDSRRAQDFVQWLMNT

As to bovine alkaline phosphatase, the results for the Dephosphorylation T50 (mins.) pH 7.4 in data set [1] and in data set [2] were 94.9 min and 85.9 min, respectively.

Source of the values: patent US20220153803.
